This passage reports other, Kd and IC50 results from publication PMC9518701.

For assay [1], the target named is SARS-CoV-2 spike protein receptor binding domain (RBD) (SARS-CoV-2, wild type (Wuhan-Hu-1 reference)) (UniProt P0DTC2).
Assay [2] shares this target. Put plainly: SPR. In general terms: SPR reads the build-up and loss of mass on a sensor chip optically.
Assay [3] concerns the target human neonatal Fc receptor (FcRn) (human) (UniProt P55899). The assay is described as follows: SPR; pH 6.0.
The next assay has as its target FcγRIIa (H131). Put plainly: SPR.
For the next assay, the target named is FcγRIIIa (F158). Put plainly: SPR.
Another assay addresses FcγRIIa (R131). Put plainly: SPR.
The target of another assay is FcγRIIIa (V158). Put plainly: SPR.
The next assay deals with FcγRIIb. The assay is described as follows: SPR.
The target of a further assay is FcγRI. The assay is described as follows: SPR.
For assay [4], the target named is SARS-CoV-2 spike protein receptor binding domain (RBD) (SARS-CoV-2) (UniProt P0DTC2).
The target is the same in assay [5]. The source holds these as a separate data set.
Assay [6] shares this target. The source holds these as a separate data set.

For orientation: Kd means a measure of binding affinity in units of concentration. What is called IC50 is the concentration that gives 50% inhibition. Read a high IC50 as weaker potency.

Like-named read-outs stand apart in the source and are kept apart here.

Chain of human neonatal Fc receptor (FcRn) (human) (P55899 24-297, chain 1 of 2): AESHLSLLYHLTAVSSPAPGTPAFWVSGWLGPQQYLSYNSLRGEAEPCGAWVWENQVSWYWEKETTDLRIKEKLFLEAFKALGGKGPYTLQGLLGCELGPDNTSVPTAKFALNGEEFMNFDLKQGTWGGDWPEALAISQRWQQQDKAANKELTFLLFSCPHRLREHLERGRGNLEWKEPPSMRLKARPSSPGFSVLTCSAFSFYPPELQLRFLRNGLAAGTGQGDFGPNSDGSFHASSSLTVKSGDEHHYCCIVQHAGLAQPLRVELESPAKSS
Chain of human neonatal Fc receptor (FcRn) (human) (partner, as listed by the source, chain 2 of 2): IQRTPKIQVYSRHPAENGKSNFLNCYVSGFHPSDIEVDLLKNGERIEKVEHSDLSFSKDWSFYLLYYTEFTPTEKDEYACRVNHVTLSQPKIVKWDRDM

For the substance amubarvimab (BRII-196) (antibody), in [1], the other was 0.026 µg/mL. In addition, the Kd in [2] was found to be 5.88 nM.

On to romlusevimab (BRII-198), for which the Kd amounted to 0.36 nM in assay [3]; 13200 nM in the assay with FcγRIIa (H131); 4450 nM with FcγRIIIa (F158); 23700 nM in the assay with FcγRIIa (R131); 731 nM in the assay with FcγRIIIa (V158); 35300 nM with FcγRIIb. This substance also gave a Kd in the assay with FcγRI of 2.77 nM.

“combination of amubarvimab and romlusevimab” showed an IC50 in assay [4] of 16.4 nM. In addition, the other stood at 0.047 µg/mL in assay [5] and 0.16 µg/mL in assay [6].
